In patent publication US7432061B2, “Assays for measuring matrix metalloproteinase activities” (BioZyme, Inc., priority 2002, dated 2008):

Biological target: stromelysin 1 (Homo sapiens, UniProt P08254)
Experiment: Inhibition with type II collagen, FlSub3 cleavage
Assay type: biochemical
Conditions: for Improvement In Selectivity (Strom1 v Col-3): 44 ug/ml Type II Collagen vs no Type II Collagen, FlSb3; for Average Percent Inhibition from 1.1 to 6.6 Hours / Average Percent Inhibition: STR1(.80 nM)

Chain of stromelysin 1 (P08254 100-477): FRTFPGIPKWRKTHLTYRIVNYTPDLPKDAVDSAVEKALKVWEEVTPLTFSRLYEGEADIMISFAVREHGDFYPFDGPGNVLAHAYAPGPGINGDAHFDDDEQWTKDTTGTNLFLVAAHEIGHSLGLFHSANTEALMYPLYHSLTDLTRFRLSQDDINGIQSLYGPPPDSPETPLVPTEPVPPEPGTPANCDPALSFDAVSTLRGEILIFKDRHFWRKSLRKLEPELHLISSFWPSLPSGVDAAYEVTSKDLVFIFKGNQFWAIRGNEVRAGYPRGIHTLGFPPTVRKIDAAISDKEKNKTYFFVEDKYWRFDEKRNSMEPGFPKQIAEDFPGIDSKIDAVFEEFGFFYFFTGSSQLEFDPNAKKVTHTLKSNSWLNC

- Improvement In Selectivity (Strom1 v Col-3): 2.5 fold
- Improvement In Selectivity (Strom1 v Col-3) (listed as collagen): four
- Average Percent Inhibition from 1.1 to 6.6 Hours (Type II Collagen 0.18 ug/ml): 15%
- Average Percent Inhibition from 1.1 to 6.6 Hours (Type II Collagen 0.54 ug/ml): 13%
- Average Percent Inhibition from 1.1 to 6.6 Hours (Type II Collagen 1.63 ug/ml): 19%
- Average Percent Inhibition from 1.1 to 6.6 Hours (Type II Collagen 4.89 ug/ml): 12%
- Average Percent Inhibition from 1.1 to 6.6 Hours (Type II Collagen 14.67 ug/ml): 18%
- Average Percent Inhibition from 1.1 to 6.6 Hours (Type II Collagen 44.00 ug/ml): 19%
- Average Percent Inhibition (TypeIICOL(1.6 ug/ul), FISb3, hour 0.10 to 1.10): −10%
- Average Percent Inhibition (TypeIICOL(1.6 ug/ul), FISb3, hour 1.10 to 2.10): 24%
- Average Percent Inhibition (TypeIICOL(1.6 ug/ul), FISb3, hour 1.10 to 6.60): 19%
- Average Percent Inhibition (TypeIICOL(1.6 ug/ul), FISb3, hour 2.10 to 3.10): 22%
- Average Percent Inhibition (TypeIICOL(1.6 ug/ul), FISb3, hour 3.10 to 4.10): 18%
- Average Percent Inhibition (TypeIICOL(1.6 ug/ul), FISb3, hour 4.10 to 5.10): 17%
- Average Percent Inhibition (TypeIICOL(1.6 ug/ul), FISb3, hour 5.10 to 6.10): 16%
- Average Percent Inhibition (TypeIICOL(4.9 ug/ul), FISb3, hour 0.10 to 1.10): 50%
- Average Percent Inhibition (TypeIICOL(4.9 ug/ul), FISb3, hour 1.10 to 2.10): 23%
- Average Percent Inhibition (TypeIICOL(4.9 ug/ul), FISb3, hour 1.10 to 6.60): 12%
- Average Percent Inhibition (TypeIICOL(4.9 ug/ul), FISb3, hour 2.10 to 3.10): 11%
- Average Percent Inhibition (TypeIICOL(4.9 ug/ul), FISb3, hour 3.10 to 4.10): 8%
- Average Percent Inhibition (TypeIICOL(4.9 ug/ul), FISb3, hour 4.10 to 5.10): 8%
- Average Percent Inhibition (TypeIICOL(4.9 ug/ul), FISb3, hour 5.10 to 6.10): 8%
- Average Percent Inhibition (TypeIICOL(15 ug/ul), FISb3, hour 0.10 to 1.10): 57%
- Average Percent Inhibition (TypeIICOL(15 ug/ul), FISb3, hour 1.10 to 2.10): 28%
- Average Percent Inhibition (TypeIICOL(15 ug/ul), FISb3, hour 1.10 to 6.60): 18%
- Average Percent Inhibition (TypeIICOL(15 ug/ul), FISb3, hour 2.10 to 3.10): 18%
- Average Percent Inhibition (TypeIICOL(15 ug/ul), FISb3, hour 3.10 to 4.10): 14%
- Average Percent Inhibition (TypeIICOL(15 ug/ul), FISb3, hour 4.10 to 5.10): 13%
- Average Percent Inhibition (TypeIICOL(15 ug/ul), FISb3, hour 5.10 to 6.10): 14%
- Average Percent Inhibition (TypeIICOL(44 ug/ul), FISb3, hour 0.10 to 1.10): 62%
- Average Percent Inhibition (TypeIICOL(44 ug/ul), FISb3, hour 1.10 to 2.10): 32%
- Average Percent Inhibition (TypeIICOL(44 ug/ul), FISb3, hour 1.10 to 6.60): 19%
- Average Percent Inhibition (TypeIICOL(44 ug/ul), FISb3, hour 2.10 to 3.10): 18%
- Average Percent Inhibition (TypeIICOL(44 ug/ul), FISb3, hour 3.10 to 4.10): 14%
- Average Percent Inhibition (TypeIICOL(44 ug/ul), FISb3, hour 4.10 to 5.10): 14%
- Average Percent Inhibition (TypeIICOL(44 ug/ul), FISb3, hour 5.10 to 6.10): 14%
- Average Percent Inhibition (TypeIICOL(.18 ug/ul), FISb3, hour 0.10 to 1.10): 22%
- Average Percent Inhibition (TypeIICOL(.18 ug/ul), FISb3, hour 1.10 to 2.10): 22%
- Average Percent Inhibition (TypeIICOL(.18 ug/ul), FISb3, hour 1.10 to 6.60): 15%
- Average Percent Inhibition (TypeIICOL(.18 ug/ul), FISb3, hour 2.10 to 3.10): 15%
- Average Percent Inhibition (TypeIICOL(.18 ug/ul), FISb3, hour 3.10 to 4.10): 12%
- Average Percent Inhibition (TypeIICOL(.18 ug/ul), FISb3, hour 4.10 to 5.10): 12%
- Average Percent Inhibition (TypeIICOL(.18 ug/ul), FISb3, hour 5.10 to 6.10): 12%
- Average Percent Inhibition (TypeIICOL(.55 ug/ul), FLSb3, hour 0.10 to 1.10): 43%
- Average Percent Inhibition (TypeIICOL(.55 ug/ul), FLSb3, hour 1.10 to 2.10): 26%
- Average Percent Inhibition (TypeIICOL(.55 ug/ul), FLSb3, hour 1.10 to 6.60): 13%
- Average Percent Inhibition (TypeIICOL(.55 ug/ul), FLSb3, hour 2.10 to 3.10): 14%
- Average Percent Inhibition (TypeIICOL(.55 ug/ul), FLSb3, hour 3.10 to 4.10): 10%
- Average Percent Inhibition (TypeIICOL(.55 ug/ul), FLSb3, hour 4.10 to 5.10): 8%
- Average Percent Inhibition (TypeIICOL(.55 ug/ul), FLSb3, hour 5.10 to 6.10): 8%
Substance: Type II Collagen: bovine type II collagen, full length MMP substrate used as inhibitor of gelatinases
